Sequences and labels used below:
B1: bispecific tetravalent antibody recognizing Ang-2 and VEGF-A of Example 1 (<VEGF> VH-CL fused via (G4S)4-connector to the C-terminus of the <Ang-2> heavy chain) (bispecific antibody, human IgG1, kappa)
heavy: not shown
light: QPGLTQPPSVSVAPGQTARITCGGNNIGSKSVHWYQQKPGQAPVLVVYDDSDRPSGIPERFSGSNSGNTATLTISRVEAGDEADYYCQVWDSSSDHYVFGTGTKVTVLRTVAAPSVFIFPPSDEQLKSGTASVVCLLNNFYPREAKVQWKVDNALQSGNSQESVTEQDSKDSTYSLSSTLTLSKADYEKHKVYACEVTHQGLSSPVTKSFNRGEC
chain: DIQMTQSPSSLSASVGDRVTITCSASQDISNYLNWYQQKPGKAPKVLIYFTSSLHSGVPSRFSGSGSGTDFTLTISSLQPEDFATYYCQQYSTVPWTFGQGTKVEIKSSASTKGPSVFPLAPSSKSTSGGTAALGCLVKDYFPEPVTVSWNSGALTSGVHTFPAVLQSSGLYSLSSVVTVPSSSLGTQTYICNVNHKPSNTKVDKKVEPKSC
notes: Tetravalent, expressed in HEK293F from three plasmids; also called bispecific tetravalent <VEGF-Ang-2> antibody; <Ang-2, VEGF> bispecific tetravalent antibody
B2: bispecific tetravalent antibody recognizing Ang-2 and VEGF-A of Example 2 (<VEGF> VH-CL fused via (G4S)4-connector to the N-terminus of the <Ang-2> heavy chain) (bispecific antibody, human IgG1, kappa)
heavy: not shown
light: B1 light
chain: B1 chain
notes: as for B1
B3: bispecific tetravalent antibody recognizing Ang-2 and VEGF-A of Example 3 (<Ang-2> VH-CH1 fused via (G4S)4-connector to the C-terminus of the heavy chain of a … (bispecific antibody)
heavy: not shown
light: B1 light
chain: B1 chain
notes: as for B1

T1 sequence (P15692 other isoform, or with tags, fused parts or gaps limits assumed): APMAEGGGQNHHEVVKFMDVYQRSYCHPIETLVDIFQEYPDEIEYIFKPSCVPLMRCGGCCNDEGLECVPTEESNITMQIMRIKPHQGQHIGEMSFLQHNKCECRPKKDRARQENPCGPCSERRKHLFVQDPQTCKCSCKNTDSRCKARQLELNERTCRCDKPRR

The experiment concerns the target T1, recombinant human VEGF165 (full-length VEGF165-His protein, R&D Systems; rhVEGF, R&D Systems Cat.-No. 293-VE) (human, UniProt P15692-4 27-191).
T1 construct: The ELISA method names 'full-length VEGF165-His protein', and the Biacore method names rhVEGF (R&D 293-VE); also called VEGF-A
The experiment in a line: ELISA and Biacore (SPR), including simultaneous binding (bridging ELISA, SPR sandwich). On the procedure: Unbound Streptavidin-POD conjugate is washed away with three-six times 300 μl PBST (0.2% Tween 20) and bound Strepatavidin-POD conjugate is detected by addition of 100 μL ABTS/well. Determination of absorbance is performed on a Tecan Fluor Spectrometer at a measurement wavelength of 405 nm (reference wavelength 492 nm).
In order to further corroborate the data from the bridging ELISA an additional assay is established to confirm simultaneous binding to VEGF and Ang-2 using surface plasmon resonance technology on a Biacore T100 instrument according to the following protocol and analyzed using the T100 software package (T100 Control, Version 2.01, T100 Evaluation, Version 2.01, T100 Kinetics Summary, Version 1.01): Ang-2 is captured with a capture level of 2000-1700 RU in PBS, 0.005% (v/v) Tween20 running buffer via a PentaHisAntibody (PentaHis-Ab BSA-free, Qiagen No. 34660) that is immobilized on a CM5 chip via amine coupling (BSA-free). HBS-N buffer served as running buffer during coupling, activation is done by mixture of EDC/NHS. The PentaHis-Ab BSA-free Capture-Antibody is diluted in coupling buffer NaAc, pH 4.5, c=30 μg/mL, finally still activated carboxyl groups are blocked by injection of 1 M Ethanolamine; ligand densities of 5000 and 17000 RU are tested. Ang-2 with a concentration of 500 nM is captured by the PentaHis-Ab at a flow of 5 μL/min diluted with running buffer+1 mg/mL BSA. […] For this sake, the bispecific tetravalent <VEGF-Ang-2> antibody is bound to Ang-2 at a flow of 50 μL/min and a concentration of 100 nM, diluted with running buffer+1 mg/mL BSA and simultaneous binding is detected by incubation with VEGF (rhVEGF, R&D-Systems Cat.-No, 293-VE) in PBS+0.005% (v/v) Tween20 running buffer at a flow of 50 μL/min and a VEGF concentration of 150 nM. Association time 120 sec, dissociation time 1200 sec. Regeneration is done after each cycle at a flow of 50 μL/min with 2×10 mM Glycin pH 2.0 and a contact time of 60 sec. […] Blanks for each Ab are measured with rhVEGF concentration “0”.
On the technique in general: In an ELISA, binding on a coated surface is turned into a signal by an enzyme label.
As for B1, the binding result is reported as “binds”.
Next, B2: “binds”.
With B3, the binding result is on record as “binds”.

The values above are taken from patent US20100316645A1 (Hoffmann-La Roche, published 2010).
